The values that follow come from PMC6555819, “Comprehensive study of nuclear receptor DNA binding provides a revised framework for understanding receptor specificity”.

Sequences and labels used below:
B1: NRC3_random_hg19_317_o1 (dsDNA)
DNA 1: GCGCCTCCTTCTTTCCTTTGTCATCTGGTGGTGGGAGCGATTGACAGCGTAGAATGAAGG
DNA 2: CCTTCATTCTACGCTGTCAATCGCTCCCACCACCAGATGACAAAGGAAAGAAGGAGGCGC
B2: NRC3_wobSeed138_DR5_A8G_o1 (dsDNA)
DNA 1: GCGATACGGGGTCAGCTAGAGGCCAGAGTATGGAAAGCGATTGACAGCGTAGAATGAAGG
DNA 2: CCTTCATTCTACGCTGTCAATCGCTTTCCATACTCTGGCCTCTAGCTGACCCCGTATCGC
B3: NRC3_random_hg19_416_o1 (dsDNA)
DNA 1: GCCCTAGTTGGACCTGTGGGAAGGGCACTACTGTTCGCGATTGACAGCGTAGAATGAAGG
DNA 2: CCTTCATTCTACGCTGTCAATCGCGAACAGTAGTGCCCTTCCCACAGGTCCAACTAGGGC
B4: NRC3_random_hg19_168_o1 (dsDNA)
DNA 1: GCACAGAAATGAAATGGGCTATAGAGCTCATCTTCTGCGATTGACAGCGTAGAATGAAGG
DNA 2: CCTTCATTCTACGCTGTCAATCGCAGAAGATGAGCTCTATAGCCCATTTCATTTCTGTGC
B5: NRC3_random_hg19_20_o1 (dsDNA)
DNA 1: GCTACACTCTCCCAAGACTAAACCAGGAAGAAGTTGGCGATTGACAGCGTAGAATGAAGG
DNA 2: CCTTCATTCTACGCTGTCAATCGCCAACTTCTTCCTGGTTTAGTCTTGGGAGAGTGTAGC
B6: NRC3_random_hg19_1_o1 (dsDNA)
DNA 1: GCGTGTTTGATTCTCATTGTCACCTTCTCTAGGCCTGCGATTGACAGCGTAGAATGAAGG
DNA 2: CCTTCATTCTACGCTGTCAATCGCAGGCCTAGAGAAGGTGACAATGAGAATCAAACACGC
B7: NRC3_random_hg19_328_o1 (dsDNA)
DNA 1: GCACTTAGAGCCCAGGAGCTTGAGGTCGCAGCTACTGCGATTGACAGCGTAGAATGAAGG
DNA 2: CCTTCATTCTACGCTGTCAATCGCAGTAGCTGCGACCTCAAGCTCCTGGGCTCTAAGTGC
B8: NRC3_random_hg19_313_o1 (dsDNA)
DNA 1: GCACTACATAAGTAATCATCTCCCTCTGCAACTGGGGCGATTGACAGCGTAGAATGAAGG
DNA 2: CCTTCATTCTACGCTGTCAATCGCCCCAGTTGCAGAGGGAGATGATTACTTATGTAGTGC
B9: NRC3_random_hg19_51_o1 (dsDNA)
DNA 1: GCGAGAAAGCTGAACTGTCACTCTTTGCTGATGATGGCGATTGACAGCGTAGAATGAAGG
DNA 2: CCTTCATTCTACGCTGTCAATCGCCATCATCAGCAAAGAGTGACAGTTCAGCTTTCTCGC
B10: NRC3_random_hg19_31_o1 (dsDNA)
DNA 1: GCCAAGAGGACTCGCACAGTGGTGCATGGCAGCTTGGCGATTGACAGCGTAGAATGAAGG
DNA 2: CCTTCATTCTACGCTGTCAATCGCCAAGCTGCCATGCACCACTGTGCGAGTCCTCTTGGC
B11: NRC3_random_hg19_14_o1 (dsDNA)
DNA 1: GCGCAGGGACTATGTGCATTAGGCCAGTTCCTCATGGCGATTGACAGCGTAGAATGAAGG
DNA 2: CCTTCATTCTACGCTGTCAATCGCCATGAGGAACTGGCCTAATGCACATAGTCCCTGCGC
B12: NRC3_random_hg19_218_o1 (dsDNA)
DNA 1: GCTTAGTCATGAAGTCTTTGCCCATGCCTGTGTCCTGCGATTGACAGCGTAGAATGAAGG
DNA 2: CCTTCATTCTACGCTGTCAATCGCAGGACACAGGCATGGGCAAAGACTTCATGACTAAGC
B13: NRC3_random_hg19_410_o1 (dsDNA)
DNA 1: GCTAACGAATGATCTTTCTAATGTGTTGTTGAATTCGCGATTGACAGCGTAGAATGAAGG
DNA 2: CCTTCATTCTACGCTGTCAATCGCGAATTCAACAACACATTAGAAAGATCATTCGTTAGC
B14: NRC3_random_hg19_270_o1 (dsDNA)
DNA 1: GCTATAGGAAGCAGGATGTTTCTTGAGAGTGTGGCCGCGATTGACAGCGTAGAATGAAGG
DNA 2: CCTTCATTCTACGCTGTCAATCGCGGCCACACTCTCAAGAAACATCCTGCTTCCTATAGC
B15: NRC3_random_hg19_253_o1 (dsDNA)
DNA 1: GCTAGCCCTCTCAGAGGACAGAGCTAGGATAGCATGGCGATTGACAGCGTAGAATGAAGG
DNA 2: CCTTCATTCTACGCTGTCAATCGCCATGCTATCCTAGCTCTGTCCTCTGAGAGGGCTAGC
B16: NRC3_random_hg19_175_o1 (dsDNA)
DNA 1: GCGAGGAAGCTAAGCACTGCAAGGAAGAGGGTCAGAGCGATTGACAGCGTAGAATGAAGG
DNA 2: CCTTCATTCTACGCTGTCAATCGCTCTGACCCTCTTCCTTGCAGTGCTTAGCTTCCTCGC
B17: NRC3_random_hg19_231_o1 (dsDNA)
DNA 1: GCATTACAAAGGTGCTGGAAAGGCTTGGGAGGAGCAGCGATTGACAGCGTAGAATGAAGG
DNA 2: CCTTCATTCTACGCTGTCAATCGCTGCTCCTCCCAAGCCTTTCCAGCACCTTTGTAATGC
B18: NRC3_wobSeed87_DR3_A14G_o1 (dsDNA)
DNA 1: GCCGAACTAGGTCGTCCAGGACAGTGAATACATTGAGCGATTGACAGCGTAGAATGAAGG
DNA 2: CCTTCATTCTACGCTGTCAATCGCTCAATGTATTCACTGTCCTGGACGACCTAGTTCGGC
B19: NRC3_wobSeed87_DR3_G10C_o1 (dsDNA)
DNA 1: B18 DNA 1 with G10C, G14A
DNA 2: B18 DNA 2 with C47T, C51G
B20: NRC3_wobSeed46_DR1_A16C_o1 (dsDNA)
DNA 1: GCTTACCAAGGTGAACGGTCGTTGATGCACGCCTTGGCGATTGACAGCGTAGAATGAAGG
DNA 2: CCTTCATTCTACGCTGTCAATCGCCAAGGCGTGCATCAACGACCGTTCACCTTGGTAAGC
B21: NRC3_wobSeed138_DR5_A14G_o1 (dsDNA)
DNA 1: B2 DNA 1 with G8A, A14G
DNA 2: B2 DNA 2 with T47C, C53T
B22: NRC3_wobSeed41_DR1_G17C_o1 (dsDNA)
DNA 1: GCATATGTAGGTTAAGCGTCATTCAGGTTGGTTCGCGCGATTGACAGCGTAGAATGAAGG
DNA 2: CCTTCATTCTACGCTGTCAATCGCGCGAACCAACCTGAATGACGCTTAACCTACATATGC
B23: NRC3_wobSeed15_DR0_A14G_o1 (dsDNA)
DNA 1: GCCGAACTAGGTCGAGGACAGTGAATCTCCGCACGCGCGATTGACAGCGTAGAATGAAGG
DNA 2: CCTTCATTCTACGCTGTCAATCGCGCGTGCGGAGATTCACTGTCCTCGACCTAGTTCGGC
B24: NRC3_wobSeed82_DR3_G14C_o1 (dsDNA)
DNA 1: GCATCGAAAGGTCCACGAGGTGAGTATACACCGTTTGCGATTGACAGCGTAGAATGAAGG
DNA 2: CCTTCATTCTACGCTGTCAATCGCAAACGGTGTATACTCACCTCGTGGACCTTTCGATGC
B25: NRC3_wobSeed45_DR1_A9C_o1 (dsDNA)
DNA 1: GCTGTCAACGTTCAAAGGTAACGTAAGTATCCACACGCGATTGACAGCGTAGAATGAAGG
DNA 2: CCTTCATTCTACGCTGTCAATCGCGTGTGGATACTTACGTTACCTTTGAACGTTGACAGC
B26: NRC3_wobSeed21_DR0_T12C_o1 (dsDNA)
DNA 1: GCCGTCAAAGTCCAAGGTAACGTAACAGAAAGCAGCGCGATTGACAGCGTAGAATGAAGG
DNA 2: CCTTCATTCTACGCTGTCAATCGCGCTGCTTTCTGTTACGTTACCTTGGACTTTGACGGC
B27: NRC3_wobSeed93_DR3_C13T_o1 (dsDNA)
DNA 1: GCAGTCAAAGTTTATCTAGGTAACGTAAGATATGCTGCGATTGACAGCGTAGAATGAAGG
DNA 2: CCTTCATTCTACGCTGTCAATCGCAGCATATCTTACGTTACCTAGATAAACTTTGACTGC
B28: NRC3_wobSeed101_DR4_A14C_o1 (dsDNA)
DNA 1: GCCCTTACGGGTCCCTCCAGGTTATAGCATCGGAGTGCGATTGACAGCGTAGAATGAAGG
DNA 2: CCTTCATTCTACGCTGTCAATCGCACTCCGATGCTATAACCTGGAGGGACCCGTAAGGGC
B29: NRC3_wobSeed141_DR5_G10C_o1 (dsDNA)
DNA 1: GCAGTCAAACTTCAGGACGAGGTAACGTAAAGCACGGCGATTGACAGCGTAGAATGAAGG
DNA 2: CCTTCATTCTACGCTGTCAATCGCCGTGCTTTACGTTACCTCGTCCTGAAGTTTGACTGC

Positions count from the first letter of the chain named.

Sequence of RARg:RXRa (P13631 whole entry, chain 1 of 2): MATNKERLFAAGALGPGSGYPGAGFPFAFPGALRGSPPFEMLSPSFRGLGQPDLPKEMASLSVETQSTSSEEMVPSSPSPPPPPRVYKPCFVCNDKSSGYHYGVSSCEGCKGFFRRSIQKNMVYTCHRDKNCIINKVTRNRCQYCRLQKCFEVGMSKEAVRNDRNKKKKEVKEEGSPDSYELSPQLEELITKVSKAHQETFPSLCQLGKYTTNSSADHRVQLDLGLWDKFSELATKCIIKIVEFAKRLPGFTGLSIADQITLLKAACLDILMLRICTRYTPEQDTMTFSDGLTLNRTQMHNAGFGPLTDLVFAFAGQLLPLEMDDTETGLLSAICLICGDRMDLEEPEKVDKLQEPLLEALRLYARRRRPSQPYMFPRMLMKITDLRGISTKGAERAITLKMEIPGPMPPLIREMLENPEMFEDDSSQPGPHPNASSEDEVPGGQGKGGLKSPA
Sequence of RARg:RXRa (P19793 whole entry, chain 2 of 2): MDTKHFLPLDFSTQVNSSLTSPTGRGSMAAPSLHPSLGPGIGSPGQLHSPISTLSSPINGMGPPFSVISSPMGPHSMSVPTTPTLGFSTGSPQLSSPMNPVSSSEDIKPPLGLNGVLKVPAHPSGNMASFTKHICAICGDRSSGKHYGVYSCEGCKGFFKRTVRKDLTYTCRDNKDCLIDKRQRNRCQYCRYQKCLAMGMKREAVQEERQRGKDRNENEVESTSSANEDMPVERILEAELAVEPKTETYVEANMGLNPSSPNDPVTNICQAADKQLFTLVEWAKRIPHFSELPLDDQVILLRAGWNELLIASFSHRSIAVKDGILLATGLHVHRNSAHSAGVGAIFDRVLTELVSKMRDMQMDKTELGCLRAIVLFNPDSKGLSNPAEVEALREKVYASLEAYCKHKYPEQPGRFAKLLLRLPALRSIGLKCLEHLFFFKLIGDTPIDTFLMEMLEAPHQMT
Sequence of PPARa:RXRa (Q07869 whole entry, chain 1 of 2): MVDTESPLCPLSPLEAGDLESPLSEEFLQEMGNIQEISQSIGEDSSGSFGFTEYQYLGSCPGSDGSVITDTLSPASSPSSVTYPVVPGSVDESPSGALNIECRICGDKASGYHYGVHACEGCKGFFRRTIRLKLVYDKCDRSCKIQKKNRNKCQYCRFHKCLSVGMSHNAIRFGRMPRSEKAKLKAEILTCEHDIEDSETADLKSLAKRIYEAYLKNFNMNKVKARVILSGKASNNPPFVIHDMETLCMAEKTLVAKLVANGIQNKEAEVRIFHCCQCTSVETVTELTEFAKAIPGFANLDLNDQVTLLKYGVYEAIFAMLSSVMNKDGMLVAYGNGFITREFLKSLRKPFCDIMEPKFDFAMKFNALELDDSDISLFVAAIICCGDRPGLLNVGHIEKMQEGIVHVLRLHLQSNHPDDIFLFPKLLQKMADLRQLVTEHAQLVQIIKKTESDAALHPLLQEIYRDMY
Sequence of PPARa:RXRa (P19793 whole entry, chain 2 of 2): as the sequence (P19793 whole entry, chain 2 of 2) above
Sequence of FXR:RXRa (Q96RI1 whole entry, chain 1 of 2): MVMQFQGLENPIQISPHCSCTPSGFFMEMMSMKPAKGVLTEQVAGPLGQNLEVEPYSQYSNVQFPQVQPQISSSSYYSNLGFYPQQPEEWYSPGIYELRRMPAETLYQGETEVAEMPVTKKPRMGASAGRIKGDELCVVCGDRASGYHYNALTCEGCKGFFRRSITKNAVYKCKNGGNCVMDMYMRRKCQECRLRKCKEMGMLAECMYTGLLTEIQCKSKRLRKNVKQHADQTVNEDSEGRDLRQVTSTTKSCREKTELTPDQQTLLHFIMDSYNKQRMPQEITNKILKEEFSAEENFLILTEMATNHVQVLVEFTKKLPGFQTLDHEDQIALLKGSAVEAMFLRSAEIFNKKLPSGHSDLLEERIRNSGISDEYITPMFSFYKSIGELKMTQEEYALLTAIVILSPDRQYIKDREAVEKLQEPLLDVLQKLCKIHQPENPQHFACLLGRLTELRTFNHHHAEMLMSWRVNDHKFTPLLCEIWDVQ
Sequence of FXR:RXRa (P19793 whole entry, chain 2 of 2): as the sequence (P19793 whole entry, chain 2 of 2) above

The first series has as its target RARg:RXRa (Homo sapiens, UniProt P13631;P19793 full;full). The series can be described thus: no ligand; PBM; 270 nM : 90 nM RXRa; PBS pH 7.4, 2% milk, 0.02% Triton X-100, 1 mM DTT, BSA, 0.4 mg/ml salmon testes DNA. As to conditions: tags: His kept;His cleaved; copies: 1;1; label: surface-attached array probe. Summed up:
(§1)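 Binding z-scores take random background probes as their reference. They come from custom Agilent 4×180K protein-binding microarrays incubated 1 h with ligand-free nuclear receptor dimers, with antibodies against each partner (one per run) detecting binding. Scanned fluorescence was regression-normalized.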
For B1, the binding signal was -1.07 PBM z-score against 500 random probes.
Same read-out and setting: the result for B2 reads 7.98 PBM z-score against 500 random probes.
In the case of B3, the binding signal was -0.27 PBM z-score against 500 random probes.
Regarding B4, the binding signal is -0.02 PBM z-score against 500 random probes.
On the same count and under the same terms, the figure for B5 is 0.15 PBM z-score against 500 random probes; for B6 it is 0.33 PBM z-score against 500 random probes; for B7 it is 0.09 PBM z-score against 500 random probes.
On the same count and under the same terms, the figure for B8 is 0.18 PBM z-score against 500 random probes; for B9 it is 0.04 PBM z-score against 500 random probes.
Still for that read-out and setting: the result for B10 reads -0.25 PBM z-score against 500 random probes; that for B11, -0.69 PBM z-score against 500 random probes.
B12: the binding signal is -0.54 PBM z-score against 500 random probes.
Still for that read-out and setting: the figure for B13 is 0.07 PBM z-score against 500 random probes; for B14 it is -0.4 PBM z-score against 500 random probes; for B15 it is -0.23 PBM z-score against 500 random probes.
Same read-out and setting: the result for B16 reads -0.07 PBM z-score against 500 random probes; that for B17, -0.04 PBM z-score against 500 random probes.

A further series has as its target PPARa:RXRa (Homo sapiens, UniProt Q07869;P19793 full;full). Described as above. Particulars: tags: GST kept;His cleaved; copies: 1;1; label: surface-attached array probe. Summed up: as §1
Regarding B1, the binding signal was -0.11 PBM z-score against 500 random probes.
Same read-out and setting: the figure for B2 is 6.77 PBM z-score against 500 random probes; for B5 it is 0.29 PBM z-score against 500 random probes.
On to B10, for which the binding signal is -0.47 PBM z-score against 500 random probes.
The same measure, in the same setting: the result for B11 reads -1.96 PBM z-score against 500 random probes; that for B14, -0.83 PBM z-score against 500 random probes.

In a further series the target is FXR:RXRa (Homo sapiens, UniProt Q96RI1;P19793 full;full). The series is described as above. Particulars: tags: His kept;His cleaved; copies: 1;1; label: surface-attached array probe. Summed up:
as §1
As for B18, the binding signal was 0.36 PBM z-score against 500 random probes.
The same measure, in the same setting: the result for B19 reads 0.27 PBM z-score against 500 random probes.
The same measure, in the same setting: the figure for B20 is 0.48 PBM z-score against 500 random probes; for B21 it is 0.37 PBM z-score against 500 random probes.
Still for that read-out and setting: the figure for B22 is 0.45 PBM z-score against 500 random probes; for B23 it is 0.21 PBM z-score against 500 random probes; for B24 it is 0.48 PBM z-score against 500 random probes.
In the case of B25, the binding signal is 0.46 PBM z-score against 500 random probes.
Still for that read-out and setting: the result for B26 reads 0.2 PBM z-score against 500 random probes; that for B27, 0.4 PBM z-score against 500 random probes; that for B28, 0.32 PBM z-score against 500 random probes.
Same read-out and setting: the result for B29 reads 0.23 PBM z-score against 500 random probes.
